In patent US20090258926A1 (CENTRE NATIONAL DE LA RECHERCHE SCIENTIFIQUE, published 2009):

Target: importin α of the cellular nuclear import machinery (endogenous, in Hs68 human fibroblasts)
Experiment: cell-based or functional assay

| Binder | luciferase expression after 12 hrs in synchronized Hs68 cells, relative to expression after 48 hrs | transfection efficiency (luciferase) after 48 hrs relative to MPG |
| --- | --- | --- |
| Ac-GALFLGFLGAAGSTMGAWSQPKKKRKV-cysteamide (not fully specified) [MPG peptide (wild-type MPG), tested as MPG/DNA complex with plasmid] | 65% |  |
| Ac-GALFLGFLGAAGSTMGAWSQPKSKRKV-cysteamide (not fully specified) [MPG^ΔNLS peptide, tested as MPG^ΔNLS/DNA complex with plasmid] |  | 72% |
